# Source: the Human Domainome abundance scans (Beltran et al. 2025)
# ± gives the uncertainty stated by the source.
# B1: Tudor domain-containing protein 3, residues 554 to 611; numbered along this chain, Q9H7E2 (parent)
# chain: KMWKPGDECFALYWEDNKFYRAEVEALHSSGMTAVVKFIDYGNYEEVLLSNIKPIQTE
# Variants of: B1
# Assay: abundance fitness (aPCA) (normalised: wild type 0, dead -1); higher = more abundant; growth selection in yeast, the domain comes from the species named
# Conditions: Homo sapiens
row,Variant,abundance fitness
1,D7N,-0.631 ± 0.093
2,D7P,-0.706 ± 0.1
3,D7Q,-0.321 ± 0.094
4,D7R,-0.762 ± 0.07
5,D7S,-0.608 ± 0.078
6,D7T,-0.502 ± 0.09
7,D7V,-0.789 ± 0.079
8,D7W,-0.882 ± 0.093
9,D7Y,-0.712 ± 0.12
10,E8C,-0.066 ± 0.086
11,E8F,-0.118 ± 0.12
12,E8G,-0.264 ± 0.054
13,E8H,0.007 ± 0.089
14,E8I,0.056 ± 0.1
15,E8K,0.017 ± 0.095
16,E8L,-0.016 ± 0.075
17,E8M,-0.046 ± 0.12
18,E8N,-0.077 ± 0.11
19,E8P,-0.032 ± 0.088
20,E8Q,-0.055 ± 0.088
21,E8T,-0.083 ± 0.093
22,E8V,-0.122 ± 0.066
23,E8W,-0.178 ± 0.077
24,E8Y,-0.079 ± 0.15

row,Variant,abundance fitness
1,C9A,-0.765 ± 0.1
2,C9D,-1.03 ± 0.23
3,C9E,-0.887 ± 0.14
4,C9F,-0.915 ± 0.16
5,C9G,-0.869 ± 0.076
6,C9H,-0.817 ± 0.26
7,C9I,-0.975 ± 0.3
8,C9K,-0.915 ± 0.17
9,C9L,-0.913 ± 0.086
10,C9N,-0.82 ± 0.27
11,C9P,-0.905 ± 0.12
12,C9Q,-0.93 ± 0.12
13,C9R,-0.819 ± 0.083
14,C9S,-0.942 ± 0.1
15,C9T,-1.04 ± 0.16
16,C9W,-0.773 ± 0.095
17,C9Y,-0.802 ± 0.099
18,F10A,-0.178 ± 0.072
19,F10C,-0.2 ± 0.092
20,F10D,-0.267 ± 0.1
21,F10E,0.023 ± 0.081
22,F10G,-0.84 ± 0.077
23,F10H,-0.255 ± 0.11
24,F10I,-0.076 ± 0.1

row,Variant,abundance fitness
1,F10K,-0.32 ± 0.11
2,F10L,0.084 ± 0.064
3,F10M,0.068 ± 0.085
4,F10P,-0.923 ± 0.15
5,F10Q,-0.006 ± 0.099
6,F10S,-0.234 ± 0.064
7,F10T,-0.383 ± 0.087
8,F10V,-0.128 ± 0.064
9,F10W,-0.051 ± 0.079
10,F10Y,0.026 ± 0.088
11,L12A,-0.525 ± 0.083
12,L12C,-0.236 ± 0.13
13,L12D,-0.891 ± 0.19
14,L12F,-0.493 ± 0.15
15,L12G,-0.782 ± 0.086
16,L12H,-0.552 ± 0.13
17,L12I,-0.272 ± 0.14
18,L12K,0.01 ± 0.12
19,L12N,-0.486 ± 0.17
20,L12P,-0.394 ± 0.075
21,L12Q,-0.252 ± 0.09
22,L12R,-0.124 ± 0.059
23,L12S,-0.725 ± 0.088
24,L12T,-0.861 ± 0.12

row,Variant,abundance fitness
1,L12V,-0.368 ± 0.071
2,L12W,-0.384 ± 0.083
3,L12Y,-0.754 ± 0.2
4,Y13A,-0.02 ± 0.069
5,Y13C,0.068 ± 0.1
6,Y13D,-0.345 ± 0.15
7,Y13F,0.065 ± 0.11
8,Y13G,-0.252 ± 0.061
9,Y13I,-0.975 ± 0.24
10,Y13K,-0.028 ± 0.093
11,Y13L,-0.15 ± 0.072
12,Y13M,-0.287 ± 0.1
13,Y13N,0 ± 0.1
14,Y13P,-0.902 ± 0.13
15,Y13Q,-0.292 ± 0.092
16,Y13R,0.069 ± 0.055
17,Y13T,-0.323 ± 0.089
18,Y13V,-0.897 ± 0.1
19,Y13W,-0.06 ± 0.075
20,W14A,0.173 ± 0.065
21,W14C,0.046 ± 0.078
22,W14D,0.129 ± 0.1
23,W14E,0.011 ± 0.077
24,W14F,-0.136 ± 0.084

row,Variant,abundance fitness
1,W14G,0.073 ± 0.054
2,W14H,0.043 ± 0.15
3,W14I,-0.131 ± 0.11
4,W14K,0.166 ± 0.1
5,W14L,-0.034 ± 0.062
6,W14M,0.066 ± 0.1
7,W14N,0.139 ± 0.1
8,W14P,0.041 ± 0.11
9,W14Q,0.169 ± 0.099
10,W14R,0.071 ± 0.056
11,W14S,0.134 ± 0.075
12,W14T,0.016 ± 0.075
13,W14V,-0.012 ± 0.057
14,W14Y,-0.006 ± 0.12
15,E15C,-0.21 ± 0.098
16,E15D,-0.336 ± 0.12
17,E15F,-0.149 ± 0.1
18,E15G,-0.142 ± 0.062
19,E15H,-0.251 ± 0.11
20,E15I,-0.156 ± 0.11
21,E15K,0.081 ± 0.082
22,E15L,-0.064 ± 0.06
23,E15N,-0.105 ± 0.1
24,E15P,-0.185 ± 0.093

row,Variant,abundance fitness
1,E15Q,-0.111 ± 0.11
2,E15R,0.022 ± 0.056
3,E15S,-0.114 ± 0.06
4,E15T,-0.139 ± 0.073
5,E15V,-0.026 ± 0.061
6,E15W,-0.27 ± 0.074
7,E15Y,0.099 ± 0.11
8,D16A,-0.529 ± 0.08
9,D16C,-0.961 ± 0.14
10,D16F,-0.76 ± 0.25
11,D16G,-0.89 ± 0.077
12,D16H,-0.116 ± 0.14
13,D16I,-1.04 ± 0.26
14,D16K,-0.366 ± 0.11
15,D16L,-0.588 ± 0.085
16,D16M,-0.754 ± 0.11
17,D16N,-0.417 ± 0.15
18,D16P,-0.602 ± 0.12
19,D16Q,-0.498 ± 0.12
20,D16R,-0.308 ± 0.057
21,D16T,-0.377 ± 0.1
22,D16V,-0.722 ± 0.099
23,D16Y,-0.691 ± 0.17
24,N17C,-0.349 ± 0.16

row,Variant,abundance fitness
1,N17D,0.034 ± 0.1
2,N17E,-0.021 ± 0.08
3,N17F,-0.65 ± 0.23
4,N17G,-0.105 ± 0.059
5,N17H,-0.29 ± 0.15
6,N17I,-0.742 ± 0.16
7,N17M,-0.191 ± 0.098
8,N17Q,-0.1 ± 0.092
9,N17R,-0.084 ± 0.068
10,N17S,-0.117 ± 0.072
11,N17T,-0.366 ± 0.084
12,N17V,-0.55 ± 0.074
13,N17W,-0.716 ± 0.13
14,N17Y,-0.604 ± 0.2
15,K18A,-0.126 ± 0.089
16,K18C,-0.188 ± 0.08
17,K18E,-0.179 ± 0.087
18,K18F,-0.917 ± 0.26
19,K18H,-0.179 ± 0.12
20,K18I,-0.273 ± 0.12
21,K18L,-0.254 ± 0.075
22,K18M,-0.033 ± 0.084
23,K18N,-0.228 ± 0.11
